Non-standard residues stand in square brackets, D forms with d. No end group written: not given here. pY = N[C@@H](Cc1ccc(OP(=O)(O)O)cc1)C(=O)O
Key:
[1] = biological target: GST-fused pK15 cytoplasmic tail (pK15 CT WT), phosphorylated in vitro by Src (UniProt Q9QR69); assay: AlphaLISA; settings: read off a plot
[2] = tested on: PLCγ1 tSH2 domain (Src-mediated phosphorylation, Y^783); assay: in vitro Src kinase assay, PLCγ1 tSH2 Y783 phosphorylation; assay type: biochemical; settings: 0.6 μM tSH2, 0.085 μM Src, 1.25–5 μM peptide or fixed 5.0 μM; 37°C; 1 hour or 45 min (method); pY783 Western blot
Method: Fig 7 The pK15 CT domain enhances Src-mediated phosphorylation of the PLCγ1 tSH2 domain. (A) The purified PLCγ1 tSH2 domain (0.6 μM) was incubated with limiting amounts (0.085 μM) of recombinant purified Src kinase expressed in insect cells in the presence of increasing concentrations (1.25–5 μM) of phosphorylated peptides representing the last 12 (pK15 12mer) or 35 (pK15 35mer) amino acids of the pK15 cytoplasmic domain for 1 hour at 37°C. The reaction was stopped using SDS sample buffer and analysed by SDS-PAGE and Western blot using an antibody to the PLCγ1 pY^783 residue (top panel) or to the His tag on the recombinant tSH2 domain (bottom panel). (B) Same as above, except that a fixed concentration (5.0 μM) of the 12mer peptide, the 35mer peptide or the pK15 truncation construct GST-pK15 CT^N2 [51] were used. The increased phosphorylation of the tSH2 domain in the presence of the 35mer peptide and pK15 CT^N2 can be seen. (C) Increasing concentrations of the phosphorylated pK15 12mer peptide were used to inhibit the increased src-mediated phosphorylation of tSH2 induced by 2.5 μM of the pK15 35mer peptide. Experimental conditions were as in panel A.
To test the impact of a pK15 CT fragment (pK15 CT^N2) or phosphorylated pK15 peptides representing the last 12 (DDLp[…]) or 35 ([…]pYEEVLFRN) amino acids of pK15 CT on the Src-mediated phosphorylation of the PLCγ1 tSH2 domain, GST-pK15CT^N2 was first phosphorylated with Src in vitro as described in the preceding paragraph. Phosphorylated GST-pK15 CT^N2 or the phosphorylated pK15 peptides, suspended in 50 mM Tris pH7.4, 300 mM NaCl, 1 mM DTT, were then added to the purified recombinant tSH2 domain (0.6 μM) together with a limiting amount of recombinant Src kinase (0.085 μM) in kinase buffer (20 mM Tris pH7.4, 20 mM NaCl, 1 mM DTT, 10 mM MgCl2, 0.2 mM ATP, 0.5 mM Sodium orthovanadate, 0.5 mM β-glycerophosphate) and the reaction allowed to proceed for 45 min. The reaction mix was then analysed by Western blot using an antibody to the phosphorylated Y^783 in the linker region of the PLCγ1 tSH2 domain and an antibody to the 5x His tag. To test the inhibitory effect of the phosphorylated 12mer pK15 peptide on the enhancement of PLCγ1 tSH2 domain phosphorylation induced by the pK15 35mer peptide, increasing concentrations (1.25–5.0 μM) of the 12mer peptide were added to a reaction mix containing the purified recombinant tSH2 domain (2.5 μM), the phosphorylated pK15 35mer (2.5 μM), and recombinant Src kinase (0.085 μM). Following a 45 min incubation at 37°C, the reaction mixture was analysed by Western blot as above.

[3] = biological target: GST-pK15 CT N2 truncation mutant, phosphorylated in vitro by 2xStrep-Src (UniProt Q9QR69); assay: AlphaLISA; settings: parent: est. 17000; read off a plot
[4] = biological target: T1, GST-fused pK15 cytoplasmic tail (pK15 CT WT), phosphorylated in vitro by Src, Q9QR69; assay: AlphaLISA; settings: chain shown with the change;, read off a plot
T1 chain: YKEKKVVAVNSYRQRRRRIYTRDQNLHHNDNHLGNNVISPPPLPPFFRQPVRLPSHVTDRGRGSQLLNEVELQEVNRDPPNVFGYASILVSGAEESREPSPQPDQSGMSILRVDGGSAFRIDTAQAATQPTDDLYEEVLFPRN

[5] = biological target: T2, GST-pK15 CT N2 truncation mutant, phosphorylated in vitro by 2xStrep-Src, Q9QR69; assay: AlphaLISA; settings: chain shown with the change;, read off a plot
T2 chain: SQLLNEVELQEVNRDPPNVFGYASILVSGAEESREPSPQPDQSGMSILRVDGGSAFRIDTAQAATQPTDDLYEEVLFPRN

[6] = biological target: T3, PLCγ1 nSH2 domain (aa 545-662) (UniProt P19174 545-662); assay: microfluidic diffusional sizing (Fluidity One-W); 200 nM 5,6-FAM peptide held constant, PLCγ1 domains varied from 0 nM to 8000 nM, room temperature, 100 mM MES, 150 mM NaCl, 3 mM TCEP, pH 6.5; hydrodynamic radius fitted; triplicate; settings: both partners purified
T3 construct: 15N-labelled for the NMR titration; source: E. coli BL21(DE3), purified (HisTrap, 3C cleavage, SEC)
T3 sequence (looked up): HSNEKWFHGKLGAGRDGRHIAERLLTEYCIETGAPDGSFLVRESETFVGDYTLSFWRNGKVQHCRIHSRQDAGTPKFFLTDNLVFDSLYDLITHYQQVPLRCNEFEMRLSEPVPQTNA

[7] = biological target: T4, PLCγ1 cSH2 domain (aa 668-790) (UniProt P19174 668-790); assay: as above; settings: both partners purified
T4 construct: PLCγ1 C-terminal SH2 domain with the cSH2-SH3 linker, residues 668-790; 15N-labelled for the NMR titration; also called cSH2 (668–790); source: E. coli BL21(DE3), purified (HisTrap, 3C cleavage, SEC)
T4 sequence (looked up): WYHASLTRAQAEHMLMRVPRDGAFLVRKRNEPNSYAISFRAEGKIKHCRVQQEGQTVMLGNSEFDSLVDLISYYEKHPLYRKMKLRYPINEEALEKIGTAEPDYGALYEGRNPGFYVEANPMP

[8] = biological target: T5, PLCγ1 tSH2 R694L (aa 545-790) (UniProt P19174 545-790, R694L); assay: as above; settings: both partners purified
T5 construct: source: E. coli BL21(DE3), purified (HisTrap, 3C cleavage, SEC)
T5 sequence (looked up): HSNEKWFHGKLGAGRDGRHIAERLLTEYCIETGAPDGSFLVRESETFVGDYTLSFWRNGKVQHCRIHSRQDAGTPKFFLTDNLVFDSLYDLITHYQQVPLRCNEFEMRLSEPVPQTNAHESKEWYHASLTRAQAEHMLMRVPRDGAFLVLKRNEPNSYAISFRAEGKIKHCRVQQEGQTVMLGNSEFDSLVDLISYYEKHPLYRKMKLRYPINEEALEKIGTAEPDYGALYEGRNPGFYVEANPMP

[9] = biological target: T6, PLCγ1 tSH2 R586L (aa 545-790) (UniProt P19174 545-790, R586L); assay: as above; settings: both partners purified
T6 construct: source: E. coli BL21(DE3), purified (HisTrap, 3C cleavage, SEC)
T6 sequence (looked up): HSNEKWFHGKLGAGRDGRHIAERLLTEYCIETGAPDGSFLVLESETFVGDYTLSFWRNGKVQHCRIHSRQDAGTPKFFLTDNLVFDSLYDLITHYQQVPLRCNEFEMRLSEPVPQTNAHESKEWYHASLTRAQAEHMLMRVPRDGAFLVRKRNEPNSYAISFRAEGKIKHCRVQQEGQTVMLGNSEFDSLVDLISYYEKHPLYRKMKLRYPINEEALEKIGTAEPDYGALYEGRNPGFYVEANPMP

[10] = biological target: T7, PLCγ1 tSH2 domain (aa 545-790) (UniProt P19174 545-790); assay: as above; settings: both partners purified
T7 construct: also called WT tSH2; source: E. coli BL21(DE3), purified (HisTrap, 3C cleavage, SEC)
T7 sequence (looked up): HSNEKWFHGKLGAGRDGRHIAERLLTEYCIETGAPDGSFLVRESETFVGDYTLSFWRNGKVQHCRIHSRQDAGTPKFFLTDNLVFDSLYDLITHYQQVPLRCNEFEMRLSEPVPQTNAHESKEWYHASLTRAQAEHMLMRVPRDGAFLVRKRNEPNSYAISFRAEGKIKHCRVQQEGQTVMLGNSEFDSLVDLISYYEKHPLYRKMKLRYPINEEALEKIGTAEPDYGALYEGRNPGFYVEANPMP

Which response ([1]; parent: est. 4000) does the source give for “His-tagged purified PLCγ1 SA (γ-specific array) R694L” here?
The response was 1400.

For “His-tagged purified PLCγ1 SA (γ-specific array) R586L; R694L”, which response ([1]; parent: est. 4000) is on record?
Its response is 700.

“His-tagged purified PLCγ1 tandem SH2 (tSH2) domain R586L; R694L” was tested. Which response ([1]; parent: est. 13000) did it give?
Its response is 350.

Which “effect on Src-mediated phosphorylation of PLCγ1 tSH2” value [2] does the source give for “SILRVDGGSAFRIDTAQAATQPTDDLpYEEVLFRN [pK15 35mer, phosphorylated pK15 peptide corresponding to the last 35 amino acids of pK15 CT]” here?
Its value is “enhanced the Src-mediated phosphorylation of the PLCγ1 tSH2 domain in a dose dependent manner”.

What does the source list for “His-tagged purified PLCγ1 cSH2 domain R694L”?
response [3]: 250; response ([1]; parent: est. 19000): 1000

For “His-tagged purified PLCγ1 tandem SH2 (tSH2) domain R694L”, which response ([1]; parent: est. 13000) is on record?
The response was 850.

B1: His-tagged purified PLCγ1 tandem SH2 (tSH2) domain R586L (protein)
chain: HSNEKWFHGKLGAGRDGRHIAERLLTEYCIETGAPDGSFLVLESETFVGDYTLSFWRNGKVQHCRIHSRQDAGTPKFFLTDNLVFDSLYDLITHYQQVPLRCNEFEMRLSEPVPQTNAHESKEWYHASLTRAQAEHMLMRVPRDGAFLVRKRNEPNSYAISFRAEGKIKHCRVQQEGQTVMLGNSEFDSLVDLISYYEKHPLYRKMKLRYPINEEALEKIGTAEPDYGALYEGRNPGFYVEANPMP
How did the response ([4]; parent: est. 13000) turn out when B1 was run?
Its response is 9800.

And the response ([5]; parent: est. 14000)?
Its response is 12000.

B2: His-tagged purified PLCγ1 SA (γ-specific array) R586L (protein)
chain: SIKNGILYLEDPVNHEWYPHYFVLTSSKIYYSEETSSDQGNEDEEEPKEVSSSTELHSNEKWFHGKLGAGRDGRHIAERLLTEYCIETGAPDGSFLVLESETFVGDYTLSFWRNGKVQHCRIHSRQDAGTPKFFLTDNLVFDSLYDLITHYQQVPLRCNEFEMRLSEPVPQTNAHESKEWYHASLTRAQAEHMLMRVPRDGAFLVRKRNEPNSYAISFRAEGKIKHCRVQQEGQTVMLGNSEFDSLVDLISYYEKHPLYRKMKLRYPINEEALEKIGTAEPDYGALYEGRNPGFYVEANPMPTFKCAVKALFDYKAQREDELTFIKSAIIQNVEKQEGGWWRGDYGGKKQLWFPSNYVEEMVNPVALEPEREHLDENSPLGDLLRGVLDVPACQIAIRPEGKNNRLFVFSISMASVAHWSLDVAADSQEELQDWVKKIREVAQ
What does the source list for B2?
response ([4]; parent: est. 4000): 3800; response ([5]; parent: est. 700): 300

B3: 5,6-FAM-labelled phosphorylated pK15 12mer peptide (peptide)
peptide: {5,6‑FAM}-DDL[pY]EEVLFPRN
notes: last 12 residues of KSHV pK15 cytoplasmic tail; also called 5,6-FAM-labelled pK15 (12mer); phosphorylated pK15 peptide; source: synthetic peptide, bought: Caslo ApS
What does the source list for B3?
Kd [6]: 0.18 ± 0.043 µM; Kd [7]: 0.166 ± 0.03 µM; Kd [8]: 6.32 ± 0.475 µM; Kd [9]: 0.44 ± 0.077 µM; Kd [10]: 1.5 ± 0.45 µM

Source: PMC8244865, “Recruitment of phospholipase Cγ1 to the non-structural membrane protein pK15 of Kaposi Sarcoma-associated herpesvirus promotes its Src-dependent phosphorylation” (PLoS Pathogens, 2021)
